For 1 molecule, Kd results are on record in publication PMC5875430 (Leukemia, 2013).

For assay [1], the target named is T1, class I granulocyte colony-stimulating factor receptor (canonical, full-length isoform) (human, UniProt Q99062 25-836).
T1 sequence (looked up): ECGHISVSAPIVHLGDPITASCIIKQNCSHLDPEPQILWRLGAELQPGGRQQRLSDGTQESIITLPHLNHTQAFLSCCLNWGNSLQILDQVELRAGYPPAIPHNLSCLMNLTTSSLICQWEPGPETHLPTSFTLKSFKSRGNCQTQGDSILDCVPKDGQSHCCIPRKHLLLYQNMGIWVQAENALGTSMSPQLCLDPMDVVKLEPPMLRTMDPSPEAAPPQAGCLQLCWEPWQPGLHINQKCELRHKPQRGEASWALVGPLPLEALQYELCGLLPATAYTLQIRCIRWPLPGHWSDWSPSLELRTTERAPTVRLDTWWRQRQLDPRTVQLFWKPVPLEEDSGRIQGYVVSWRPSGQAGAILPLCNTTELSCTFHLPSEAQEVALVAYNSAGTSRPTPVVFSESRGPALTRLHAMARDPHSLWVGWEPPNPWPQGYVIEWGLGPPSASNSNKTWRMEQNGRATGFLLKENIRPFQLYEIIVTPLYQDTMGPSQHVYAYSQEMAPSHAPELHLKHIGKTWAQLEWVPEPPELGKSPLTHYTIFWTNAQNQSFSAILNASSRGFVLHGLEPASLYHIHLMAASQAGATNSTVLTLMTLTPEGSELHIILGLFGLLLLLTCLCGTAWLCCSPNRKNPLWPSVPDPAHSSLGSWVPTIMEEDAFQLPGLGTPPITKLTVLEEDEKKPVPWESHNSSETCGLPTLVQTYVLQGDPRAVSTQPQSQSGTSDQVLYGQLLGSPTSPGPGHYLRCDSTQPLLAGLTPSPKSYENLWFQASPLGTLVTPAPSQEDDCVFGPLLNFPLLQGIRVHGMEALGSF
Nature of the assay: radioligand binding.

Assay [2] has as its target T2, class IV granulocyte colony-stimulating factor receptor (alternatively spliced, truncated isoform) (human, UniProt Q99062-4 25-783).
T2 sequence (looked up): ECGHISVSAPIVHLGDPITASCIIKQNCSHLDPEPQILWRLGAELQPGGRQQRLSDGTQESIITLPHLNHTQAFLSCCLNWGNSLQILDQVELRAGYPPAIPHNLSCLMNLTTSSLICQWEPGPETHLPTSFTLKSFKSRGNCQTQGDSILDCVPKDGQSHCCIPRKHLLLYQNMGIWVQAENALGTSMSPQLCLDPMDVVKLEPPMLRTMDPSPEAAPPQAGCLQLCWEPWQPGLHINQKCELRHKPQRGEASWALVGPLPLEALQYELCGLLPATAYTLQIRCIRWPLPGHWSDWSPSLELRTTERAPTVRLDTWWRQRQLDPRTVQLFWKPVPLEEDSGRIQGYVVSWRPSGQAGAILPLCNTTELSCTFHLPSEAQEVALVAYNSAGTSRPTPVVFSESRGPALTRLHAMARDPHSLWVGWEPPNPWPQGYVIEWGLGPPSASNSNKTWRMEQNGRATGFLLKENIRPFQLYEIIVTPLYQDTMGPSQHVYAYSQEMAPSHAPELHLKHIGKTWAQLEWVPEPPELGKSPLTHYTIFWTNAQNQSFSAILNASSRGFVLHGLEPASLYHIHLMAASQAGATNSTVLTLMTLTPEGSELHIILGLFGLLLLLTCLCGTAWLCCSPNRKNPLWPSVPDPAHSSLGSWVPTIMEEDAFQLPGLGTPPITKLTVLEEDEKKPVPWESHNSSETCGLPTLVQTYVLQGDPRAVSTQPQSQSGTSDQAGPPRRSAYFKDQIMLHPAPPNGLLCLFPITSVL
The assay can be described thus: radioligand binding.

B1: human granulocyte colony-stimulating factor (ligand, UniProt P09919 31-207, looked up)
chain: TPLGPASSLPQSFLLKCLEQVRKIQGDGAALQEKLVSECATYKLCHPEELVLLGHSLGIPWAPLSSCPSQALQLAGCLSQLHSGLFLYQGLLQALEGISPELGPTLDTLQLDVADFATTIWQQMEELGMAPALQPTQGAMPAFASAFQRRAGGVLVASHLQSFLEVSYRVLRHLAQP
modifications: 125I Bolton-Hunter reagent label (site not stated)
Consider B1, for which the values for the Kd in assay [1] and in assay [2] were 0.58 nM and 0.53 nM, respectively.

What is called Kd is a measure of binding affinity in units of concentration. Read a high Kd as a looser complex.
